Tests used:
Experiment in all cases: pull-down; biotinylated cbEGF41-43 or control cbEGF32-34 immobilised on M270 streptavidin-coated magnetic beads; 15 ug His-tagged protein in 50 mM Tris-HCl pH 7.4, 150 mM NaCl, 2 mM CaCl2, 0.05% Tween-20, 1% BSA for 1 hr; western blot with anti-RGS-His-HRP
Settings in all cases: both partners purified
[1] = target: T1, FUN-EGF3 mutant lacking the 63Y-N-A-Y66 motif in the FUN domain (human, UniProt P35555 45-178, 63Y-N-A-Y66 deleted)
T1 construct: human fibrillin-1 FUN-EGF3, residues R45-E178, with 63Y-N-A-Y66 deleted; also called YNAY FUN-EGF3

S88A FUN-EGF3 = target: T2, S88A FUN-EGF3 (human, UniProt P35555 45-178, S88A)
T2 construct: human fibrillin-1 FUN-EGF3, residues R45-E178, with S88 substituted with alanine

FUN-EGF3 (G5) mutant = target: T3, FUN-EGF3 (G5) mutant (human, UniProt P35555 45-178, 113S-R-S-I-Q117 replaced with five glycines)
T3 construct: human fibrillin-1 FUN-EGF3, residues R45-E178, with 113S-R-S-I-Q117 of the EGF1-EGF2 linker replaced with five glycines; also called G5 FUN-EGF3

R62A FUN-EGF3 = target: T4, R62A FUN-EGF3 (human, UniProt P35555 45-178, R62A)
T4 construct: human fibrillin-1 FUN-EGF3, residues R45-E178, with R62A

[2] = target: T5, human fibrillin-1 FUN-EGF3 fragment (residues R45-E178) (human, UniProt P35555 45-178)
T5 construct: human fibrillin-1, fibrillin unique N-terminal (FUN) domain and EGF1-EGF3, residues R45-E178; The vector pQE-30 is named; also called wild-type (WT) FUN-EGF3; fibrillin N-terminal fragment

Measured: binding result

T2 sequence (P35555 45-178 S88A): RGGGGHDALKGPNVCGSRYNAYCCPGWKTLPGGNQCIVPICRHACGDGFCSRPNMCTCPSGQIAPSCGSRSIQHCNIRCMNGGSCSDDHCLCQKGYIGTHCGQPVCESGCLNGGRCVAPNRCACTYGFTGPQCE
T4 sequence (P35555 45-178 R62A): as the sequence (P35555 45-178 S88A) above, with R18A, A44S counted along it
T3 sequence (P35555 other isoform, or with tags, fused parts or gaps with the stated changes): as the sequence (P35555 45-178 S88A) above, with A44S, S69G, R70G, S71G, I72G, Q73G counted along it
T5 sequence (P35555 45-178): as the sequence (P35555 45-178 S88A) above, with A44S counted along it
T1 sequence (P35555 other isoform, or with tags, fused parts or gaps 63Y-N-A-Y66 deleted | 63Y-N-A-Y66 deleted | mutant): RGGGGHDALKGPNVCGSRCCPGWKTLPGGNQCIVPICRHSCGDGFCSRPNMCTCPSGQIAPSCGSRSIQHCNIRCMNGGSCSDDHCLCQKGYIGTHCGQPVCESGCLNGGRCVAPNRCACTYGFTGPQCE

B1: human fibrillin-1 cbEGF41-43 fragment (residues D2567-V2687), biotinylated, C-terminal BirA tag (domain or fragment)
chain: not shown
modifications: biotin, site-specific, on the BirA tag
notes: Held on streptavidin-coated magnetic beads by its biotin; also called fibrillin C-terminal fragment; not shown: BirA tag, C-terminal, kept
binds: [1] | S88A FUN-EGF3 | FUN-EGF3 (G5) mutant | R62A FUN-EGF3 | [2]

Source: publication PMC3794157, “Structure of the Fibrillin-1 N-Terminal Domains Suggests that Heparan Sulfate Regulates the Early Stages of Microfibril Assembly” (Structure(London, England:1993), 2013)
